Data as given in publication PMC6443348, “Protein denaturation at the air-water interface and how to prevent it” (eLife, 2019).

Biological target: T1, fatty acid synthase (FAS) from Saccharomyces cerevisiae, beta subunit (forms the beta-domes) (Saccharomyces cerevisiae, UniProt P07149 1-2051)
T1 construct: Fatty acid synthase subunit beta, Saccharomyces cerevisiae; also called yeast FAS
Test: cryo-EM structure; single-particle cryo-EM of purified FAS complex (0.2 mg/ml) on hydrophilized graphene grids; maps at 4.8 Å (C1) and 4.0 Å (D3 symmetry)
Conditions: both partners purified

T1 sequence (P07149 whole entry): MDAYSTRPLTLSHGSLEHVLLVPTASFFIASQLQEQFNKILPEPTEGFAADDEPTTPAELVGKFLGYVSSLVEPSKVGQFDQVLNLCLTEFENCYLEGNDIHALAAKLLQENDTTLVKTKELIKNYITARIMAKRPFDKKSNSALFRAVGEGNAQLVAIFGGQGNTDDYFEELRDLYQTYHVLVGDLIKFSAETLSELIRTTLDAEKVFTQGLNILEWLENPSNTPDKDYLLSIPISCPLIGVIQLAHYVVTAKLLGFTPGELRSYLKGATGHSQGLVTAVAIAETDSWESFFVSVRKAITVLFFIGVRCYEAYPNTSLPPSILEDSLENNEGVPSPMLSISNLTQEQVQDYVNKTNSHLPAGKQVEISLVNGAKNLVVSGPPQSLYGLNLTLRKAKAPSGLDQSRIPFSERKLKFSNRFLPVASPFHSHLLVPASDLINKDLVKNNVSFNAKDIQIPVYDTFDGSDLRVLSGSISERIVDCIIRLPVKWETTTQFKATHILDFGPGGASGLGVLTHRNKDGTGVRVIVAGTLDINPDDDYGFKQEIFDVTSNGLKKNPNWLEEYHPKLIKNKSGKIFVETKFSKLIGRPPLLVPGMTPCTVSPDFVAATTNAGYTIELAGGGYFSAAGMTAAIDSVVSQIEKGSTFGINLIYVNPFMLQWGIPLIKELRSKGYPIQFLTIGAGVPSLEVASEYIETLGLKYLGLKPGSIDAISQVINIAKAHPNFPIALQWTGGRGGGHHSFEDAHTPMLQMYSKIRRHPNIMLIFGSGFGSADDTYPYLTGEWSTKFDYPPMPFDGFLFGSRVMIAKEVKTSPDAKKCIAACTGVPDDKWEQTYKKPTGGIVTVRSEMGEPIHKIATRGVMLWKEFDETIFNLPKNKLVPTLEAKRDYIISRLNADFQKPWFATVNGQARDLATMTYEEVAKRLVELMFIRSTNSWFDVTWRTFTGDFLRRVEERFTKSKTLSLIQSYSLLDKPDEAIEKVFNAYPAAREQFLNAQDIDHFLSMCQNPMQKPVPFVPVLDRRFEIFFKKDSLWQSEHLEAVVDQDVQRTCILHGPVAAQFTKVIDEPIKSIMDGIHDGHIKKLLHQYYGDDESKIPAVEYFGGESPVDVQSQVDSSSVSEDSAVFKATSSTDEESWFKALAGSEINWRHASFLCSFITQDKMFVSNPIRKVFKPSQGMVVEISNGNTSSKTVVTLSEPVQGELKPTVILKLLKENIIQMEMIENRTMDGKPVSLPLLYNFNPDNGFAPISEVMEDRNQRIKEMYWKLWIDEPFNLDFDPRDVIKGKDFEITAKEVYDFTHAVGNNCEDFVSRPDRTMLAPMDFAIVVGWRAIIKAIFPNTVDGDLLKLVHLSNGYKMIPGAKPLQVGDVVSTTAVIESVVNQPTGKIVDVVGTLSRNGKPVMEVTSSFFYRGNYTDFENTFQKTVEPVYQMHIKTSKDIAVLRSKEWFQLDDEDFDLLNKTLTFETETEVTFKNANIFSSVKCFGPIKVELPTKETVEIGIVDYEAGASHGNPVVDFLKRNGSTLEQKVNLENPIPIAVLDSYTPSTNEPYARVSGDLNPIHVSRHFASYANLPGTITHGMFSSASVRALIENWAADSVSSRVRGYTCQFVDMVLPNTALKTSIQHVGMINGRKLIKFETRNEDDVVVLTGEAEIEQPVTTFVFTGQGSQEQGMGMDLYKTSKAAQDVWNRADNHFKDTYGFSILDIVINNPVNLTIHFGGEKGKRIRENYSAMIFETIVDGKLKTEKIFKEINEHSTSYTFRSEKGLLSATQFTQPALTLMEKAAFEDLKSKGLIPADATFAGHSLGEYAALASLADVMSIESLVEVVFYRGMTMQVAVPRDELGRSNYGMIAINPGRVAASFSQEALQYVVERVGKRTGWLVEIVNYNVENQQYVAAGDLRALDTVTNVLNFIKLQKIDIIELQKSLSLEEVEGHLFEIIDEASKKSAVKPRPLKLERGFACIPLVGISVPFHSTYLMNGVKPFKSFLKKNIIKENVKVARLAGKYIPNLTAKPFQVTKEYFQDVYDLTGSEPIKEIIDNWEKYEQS

binding result: binds
B1: fatty acid synthase (FAS) from Saccharomyces cerevisiae, alpha subunit (forms the alpha wheel) (natural protein, UniProt P19097 1-1887, looked up)
chain: MKPEVEQELAHILLTELLAYQFASPVRWIETQDVFLKDFNTERVVEIGPSPTLAGMAQRTLKNKYESYDAALSLHREILCYSKDAKEIYYTPDPSELAAKEEPAKEEAPAPTPAASAPAPAAAAPAPVAAAAPAAAAAEIADEPVKASLLLHVLVAHKLKKSLDSIPMSKTIKDLVGGKSTVQNEILGDLGKEFGTTPEKPEETPLEELAETFQDTFSGALGKQSSSLLSRLISSKMPGGFTITVARKYLQTRWGLPSGRQDGVLLVALSNEPAARLGSEADAKAFLDSMAQKYASIVGVDLSSAASASGAAGAGAAAGAAMIDAGALEEITKDHKVLARQQLQVLARYLKMDLDNGERKFLKEKDTVAELQAQLDYLNAELGEFFVNGVATSFSRKKARTFDSSWNWAKQSLLSLYFEIIHGVLKNVDREVVSEAINIMNRSNDALIKFMEYHISNTDETKGENYQLVKTLGEQLIENCKQVLDVDPVYKDVAKPTGPKTAIDKNGNITYSEEPREKVRKLSQYVQEMALGGPITKESQPTIEEDLTRVYKAISAQADKQDISSSTRVEFEKLYSDLMKFLESSKEIDPSQTTQLAGMDVEDALDKDSTKEVASLPNKSTISKTVSSTIPRETIPFLHLRKKTPAGDWKYDRQLSSLFLDGLEKAAFNGVTFKDKYVLITGAGKGSIGAEVLQGLLQGGAKVVVTTSRFSKQVTDYYQSIYAKYGAKGSTLIVVPFNQGSKQDVEALIEFIYDTEKNGGLGWDLDAIIPFAAIPEQGIELEHIDSKSEFAHRIMLTNILRMMGCVKKQKSARGIETRPAQVILPMSPNHGTFGGDGMYSESKLSLETLFNRWHSESWANQLTVCGAIIGWTRGTGLMSANNIIAEGIEKMGVRTFSQKEMAFNLLGLLTPEVVELCQKSPVMADLNGGLQFVPELKEFTAKLRKELVETSEVRKAVSIETALEHKVVNGNSADAAYAQVEIQPRANIQLDFPELKPYKQVKQIAPAELEGLLDLERVIVVTGFAEVGPWGSARTRWEMEAFGEFSLEGCVEMAWIMGFISYHNGNLKGRPYTGWVDSKTKEPVDDKDVKAKYETSILEHSGIRLIEPELFNGYNPEKKEMIQEVIVEEDLEPFEASKETAEQFKHQHGDKVDIFEIPETGEYSVKLLKGATLYIPKALRFDRLVAGQIPTGWNAKTYGISDDIISQVDPITLFVLVSVVEAFIASGITDPYEMYKYVHVSEVGNCSGSGMGGVSALRGMFKDRFKDEPVQNDILQESFINTMSAWVNMLLISSSGPIKTPVGACATSVESVDIGVETILSGKARICIVGGYDDFQEEGSFEFGNMKATSNTLEEFEHGRTPAEMSRPATTTRNGFMEAQGAGIQIIMQADLALKMGVPIYGIVAMAATATDKIGRSVPAPGKGILTTAREHHSSVKYASPNLNMKYRKRQLVTREAQIKDWVENELEALKLEAEEIPSEDQNEFLLERTREIHNEAESQLRAAQQQWGNDFYKRDPRIAPLRGALATYGLTIDDLGVASFHGTSTKANDKNESATINEMMKHLGRSEGNPVIGVFQKFLTGHPKGAAGAWMMNGALQILNSGIIPGNRNADNVDKILEQFEYVLYPSKTLKTDGVRAVSITSFGFGQKGGQAIVVHPDYLYGAITEDRYNEYVAKVSAREKSAYKFFHNGMIYNKLFVSKEHAPYTDELEEDVYLDPLARVSKDKKSGSLTFNSKNIQSKDSYINANTIETAKMIENMTKEKVSNGGVGVDVELITSINVENDTFIERNFTPQEIEYCSAQPSVQSSFAGTWSAKEAVFKSLGVKSLGGGAALKDIEIVRVNKNAPAVELHGNAKKAAEEAGVTDVKVSISHDDLQAVAVAVSTKK
notes: Fatty acid synthase subunit alpha, Saccharomyces cerevisiae; also called yeast FAS
